{"source": "patent US20230059489A1", "about": "(Pfizer, published 2023)", "binders": {"B1": {"name": "P5F7 (IgG format) (antibody, V domains shown)", "VH": "EVQLLESGGGLVQPGGSLRLSCAASGFTFSSYAMNWVRQAPGKGLEWVSSISGGGRSTYYADSVKGRFTISRDNSKNTLYLQMNSLRAEDTAVYYCARDLSPSDVGWGYGFDIWGQGTLVTVSS", "VL": "EIVLTQSPATLSLSPGERATLSCRASQSVSSNLAWYQQKPGQAPRLLIYDTFTRATGIPARFSGSGSGTDFTLTISRLEPEDFAVYYCQQYGSSPPTFGQGTRLEIK", "notes": "IgG format, captured by anti-human Fc; the VLs differ at the N-terminus; the first entry is used"}, "B2": {"name": "P4H11 (IgG format) (antibody, V domains shown)", "VH": "EVQLLESGGGLVQPGGSLRLSCAASGFTFSSYAMNWVRQAPGKGLEWVSSISGGGRSTYYADSVKGRFTISRDNSKNTLYLQMNSLRAEDTAVYYCARDLSPSDVGWGYGFDIWGQGTLVTVSS", "VL": "EIVLTQSPGTLSLSPGERATLSCRASQSVSNTYLAWYQQKPGQAPRLLIYDTSSRATGIPDRFSGSGSGTDFTLTISRLEPEDFAVYYCQQYGSSLTFGQGTKVEIK", "notes": "IgG format, captured by anti-human Fc"}, "B3": {"name": "P15F7 (IgG format) (antibody, V domains shown)", "VH": "EVQLLESGGGLVQPGGSLRLSCAASGFTFNNYAMNWVRQAPGKGLEWVSVISGSGGTTYYADSVKGRFTISRDNSKNTLYLQMNSLRAEDTAVYYCASGIWDLRYWGQGTLVTVSS", "VL": "DIQMTQSPSSLSASVGDRVTITCRASQSISTYLNWYQQKPGKAPKLLIYAASNLQSGVPSRFSGSGSGTDFTLTISSLQPEDFATYYCQQSYSIPLTFGQGTKVEIK", "notes": "as for B2"}, "B4": {"name": "P12B6 (IgG format) (antibody, V domains shown)", "VH": "QVQLVQSGAEVKKPGSSVKVSCKASGGTFMSYAISWVRQAPGQGLEWMGGIIPIFGIANYAQKFQGRVTITADKSTSTAYMELSSLRSEDTAVYYCARETLIYPIPFELWGQGTLVTVSS", "VL": "EIVLTQSPGTLSLSPGERATLSCRASQIVSSSYLAWYQQKPGQAPRLLIYGASSRASGIPDRFSGSGSGTDFTLTISRLEPEDFAVYYCQQYGGSPYTFGQGTKVEIK", "notes": "as for B2"}, "B5": {"name": "P8B6 (IgG format) (antibody, V domains shown)", "VH": "QVQLVQSGAEVKKPGSSVKVSCKASGGTFSSYAVSWVRQAPGQGLEWMGGIIPIFGIANYAQKFQGRVTITADTSTSTAYMELSSLRSEDTAVYYCAIEGIGGDLRYDGYDAWGQGTLVTVSS", "VL": "EIVLTQSPGTLSLSPGERATLSCRASQSVSHSYLAWYQQKPGQAPRLLIYGASFRAAGIPDRFSGSGSGTDFTLTISRLEPEDFAVYYCQQYGSDPYTFGQGTKVEIK", "notes": "as for B2"}, "B6": {"name": "P14G2 (IgG format) (antibody, V domains shown)", "VH": "EVQLLESGGGLVQPGGSLRLSCAASGFTFSNYVMNWVRQAPGKGLEWVSAISGSGATTYYADSVKGRFTISRDNSKNTLYLQMNSLRAEDTAVYYCVSGLWAGGIWGQGTLVTVSS", "VL": "DIQMTQSPSSLSASVGDRVTITCRASQSISSYLNWYQQKPGKAPKLLIYDASDLQRGVPSRFSGSGSGTDFTLTISSLQPEDFATYYCQQSYNTPWTFGQGTKVEIK", "notes": "as for B2"}, "B7": {"name": "P3A1 (IgG format) (antibody, V domains shown)", "VH": "QVQLVQSGAEVKKPGSSVKVSCKASGGTFSSYDISWVRQAPGQGLEWMGGIIPVSGRANYAQKFQGRVTITTDKSTSTAYMELSSLRSEDTAVYYCARVRPTYWPLDYWGQGTLVTVSS", "VL": "not shown", "notes": "as for B2"}, "B8": {"name": "P9F1 (IgG format) (antibody, V domains shown)", "VH": "EVQLLESGGGLVQPGGSLRLSCAASGFIFSSFAMSWVRQAPGKGLEWVSDISGSGASTYYADSVKGRFTISRDNSKNTLYLQMNSLRAEDTAVYYCASASGGSGSYWPYMDPWGQGTLVTVSS", "VL": "QSVLTQPPSASGTPGQRVTISCSGSGSNIGSNYVYWYQQLPGTAPKLLIYRNNQRPSGVPDRFSGSKSGTSASLAISGLRSEDEADYYCAAWDGSLSRPVFGTGTKLTVL", "notes": "as for B2"}, "B9": {"name": "P1B4 (IgG format) (antibody, V domains shown)", "VH": "QVQLVQSGAEVKKPGSSVKVSCKASGGVFSRYALSWVRQAPGQGLEWMGGIIPMLGFANYAQKFQGRVTITADESTSTAYMELSSLRSEDTAVYYCATLDFGALDYWGQGTLVTVSS", "VL": "EIVLTQSPGTLSLSPGERATLSCRASQSVPNEQLAWYQQKPGQAPRLLIYDASSRATGIPDRFSGSGSGTDFTLTISRLEPEDFAVYYCQQYGSPPLTFGQGTKVEIK", "notes": "as for B2"}, "B10": {"name": "P1A5 (IgG format) (antibody, V domains shown)", "VH": "QVQLVQSGAEVKKPGSSVKVSCKASGGVFSRYALSWVRQAPGQGLEWMGGIIPMLGFANYAQKFQGRVTITADESTSTAYMELSSLRSEDTAVYYCATLDFGALDYWGQGTLVTVSS", "VL": "EIVLTQSPGTLSLSPGERATLSCRASQAVDSSDLAWYQQKPGQAPRLLIYDAYTRPSGIPDRFSGSGSGTDFTLTISRLEPEDFAVYYCQQYGSSPLTFGGGTKLEIK", "notes": "IgG format, captured by anti-human Fc; the entry printed as P1A5 is used"}, "B11": {"name": "P1B11 (IgG format) (antibody, V domains shown)", "VH": "QVQLVQSGAEVKKPGSSVKVSCKASGGTFRSFDISWVRQAPGQGLEWMGRIIPILGYANYAQKFQGRVTITADESTSTAYMELSSLRSEDTAVYYCASDLGAPWAGYPFDPWGQGTLVTVSS", "VL": "EIVLTQSPGTLSLSPGERATLSCRASQSVSSSELAWYQQKPGQAPRLLIYDASSRATGIPDRFSGSGSGTDFTLTISRLEPEDFAVYYCQQYDSSPLTFGQGTKVEIK", "notes": "as for B2"}, "B12": {"name": "P3E10 (IgG format) (antibody, V domains shown)", "VH": "QVQLVQSGAEVKKPGSSVKVSCKASGGTFSSYAIQWVRQAPGQGLEWMGGIVGSWGLANYAQKFQGRVTITTDKSTSTAYMELSSLRSEDTAVYYCATSAFGELASWGQGTLVTVSS", "VL": "EIVLTQSPGTLSLSPGERATLSCRASQSVPSSQLAWYQQKPGQAPRLLIYDASSRATGIPDRFSGSGSGTDFTLTISRLEPEDFAVYYCQQYGSSPLTFGQGTKVEIK", "notes": "as for B2"}}}
{"biological_target": "T1, human FLT3 (hFLT3) (human, UniProt P36888 27-543)", "T1 construct": "also called huFlt3; Fms-Like Tyrosine Kinase 3", "T1 sequence (looked up)": "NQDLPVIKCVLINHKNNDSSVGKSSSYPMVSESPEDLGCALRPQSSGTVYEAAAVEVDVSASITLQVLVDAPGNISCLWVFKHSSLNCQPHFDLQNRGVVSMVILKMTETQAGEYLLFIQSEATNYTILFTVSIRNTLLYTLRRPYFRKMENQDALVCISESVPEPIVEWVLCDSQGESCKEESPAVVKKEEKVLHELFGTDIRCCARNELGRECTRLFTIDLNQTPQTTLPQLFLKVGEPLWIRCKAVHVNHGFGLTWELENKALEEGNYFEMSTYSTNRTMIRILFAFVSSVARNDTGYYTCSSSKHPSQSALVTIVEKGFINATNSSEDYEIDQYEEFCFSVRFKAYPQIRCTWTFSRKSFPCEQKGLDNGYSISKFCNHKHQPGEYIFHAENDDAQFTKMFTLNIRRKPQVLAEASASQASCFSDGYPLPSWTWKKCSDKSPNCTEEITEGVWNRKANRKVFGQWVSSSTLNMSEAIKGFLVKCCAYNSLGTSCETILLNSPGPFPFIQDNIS", "test": "SPR (Biacore T200), 37 C; IgG captured on anti-human Fc, hFLT3 as analyte", "method": "All experiments were performed on a Biacore T200 surface Plasmon resonance biosensor (GE Lifesciences, Piscataway N.J.).\nThe sensor chip preparation was performed at 25° C. with a running buffer of 10 mM HEPES, 150 mM NaCl, 0.05% (v/v) Tween-20, pH 7.4. An anti-human Fc sensor chip was made by activating all flow cells of a Biacore CM4 sensor chip with a 1:1 (v/v) mixture of 400 mM EDC and 100 mM NHS for 7 minutes, at a flow rate of 10 μL/min. An anti-human Fc reagent (Goat Anti-Human IgG Fc, Southern Biotech Catalog #2081-01) was diluted to 30 μg/mL in 10 mM Sodium Acetate pH 4.5 and injected on all flow cells for 7 minutes at 20 μL/min. All flow cells were blocked with 100 mM ethylenediamine in 150 mM Borate buffer pH 8.5 for 7 minutes at 10 μL/min.\nThe experiments were performed at 37° C. using a running buffer of 10 mM HEPES, 150 mM NaCl, 0.05% (v/v) Tween-20, pH 7.4, 1 mg/mL BSA. FLT3 antibodies were captured from undiluted supernatants onto downstream flow cells (flow cells 2, 3 and 4) at a flow rate of 10 μL/min for 1 minute. Different antibodies were captured on each flow cell. Flow cell 1 was used as a reference surface. Following capture of FLT3 antibodies, analyte (buffer, hFLT3) was injected at 30 μL/min on all flow cells for two minutes. After the analyte injection, dissociation was monitored for 10 minutes followed by regeneration of all flow cells with three 1-minute injections of 75 mM Phosphoric Acid. For each captured FLT3 antibody, the following analyte injections were performed: buffer, 11 nM hFLT3, 33 nM hFLT3, 100 nM hFLT3 and 300 nM hFLT3. Buffer cycles were collected for each captured FLT3 antibody for double-referencing purposes (double-referencing as described in Myszka, D. G. Improving biosensor analysis. J. Mol. Recognit. 12, 279-284 (1999)). The double-referenced sensorgrams were fit globally to a simple 1:1 Langmuir with mass transport binding model.", "units": {"Kd": "nM", "koff": "s⁻¹", "kon": "M⁻¹ s⁻¹", "t1/2": "min"}}
{"binder": "B1", "Kd": 0.24, "koff": 0.000152, "kon": 636000, "t1/2": 76}
{"binder": "B2", "Kd": 233, "koff": 0.0144, "kon": 61800, "t1/2": 1}
{"binder": "B3", "Kd": 38, "koff": 0.0055, "kon": 140000, "t1/2": 2.1}
{"binder": "B4", "Kd": 84, "koff": 0.009, "kon": 110000, "t1/2": 1.3}
{"binder": "B5", "Kd": 2.5, "koff": 0.00023, "kon": 93000, "t1/2": 51}
{"binder": "B6", "Kd": 8, "koff": 0.0011, "kon": 140000, "t1/2": 10.7}
{"binder": "B7", "Kd": 64, "koff": 0.006, "kon": 95000, "t1/2": 1.9}
{"binder": "B8", "Kd": 127, "koff": 0.023, "kon": 180000, "t1/2": 0.5}
{"binder": "B9", "Kd": 32, "koff": 0.0058, "kon": 180000, "t1/2": 2}
{"binder": "B10", "Kd": 0.19, "koff": 0.000347, "kon": "1.78e+06", "t1/2": 33}
{"binder": "B11", "Kd": 45, "koff": 0.0055, "kon": 120000, "t1/2": 2.1}
{"binder": "B12", "Kd": 106, "koff": 0.019, "kon": 180000, "t1/2": 0.6}
